This passage reports protein production results from a protein production outcome set (Wang et al. 2014).

The series in a line: label from the status in PepcDB records.
In the case of “MKSWPRPCSWACANPETKGRAYRTMSSSPTISPASDTFAAMTDDHRLAEFIREQASATRVVIQARKRLSGGAIQENWLLDLLIEGGPWAGVRRWVLRSDALSALPASLDREQEFAVLQVVYQAGVKVPRPLWLCRDVRVHGRVFFLMEYVPGSAAGRALSTGAGPQGRAQLATQLGANLARLHQVRPPCATLCFLSVPDSSPALATIDAYRRYLDTLADAYPVLEWGLRWCELHAPRSSTLCLLHRDYRTGNYLASEEGLEAVLDWEFTGWGDPCEDLGWFTARCWRFTRPDLEAGGIGQLEDFLRGYHEVSSLCIERSRLHYWQVMATLRWAVIALQQGQRHLSGEEPSLELALTARLLPELELDILHMTGAEAP”, the protein production entry is listed as “failed”.

Consider “MKSWQIELLYDGECPLCLREVNFLRSKDQGRGLVNFVDIAQPDYNPLDHGGVSFEDAMARIHGVKADGSVVKNVAVFREVYEILGIGWLYAPTRWPIIGPLVDRIYDFWADLRLSWTGRSSLAEILAQREKGMCATDGCALPVTSGVEGKP”, for which the protein production result is listed as “failed”.

On to “MKSYTKHTHTNRLASESSPYLLQHAHNPVEWFPWGEEALQKAKAEDKPILVSIGYSACHWCHVMEHECFEKEEVAAVMNDLFINIKIDREERPDLDQIYMDAVSAMGLRGGWPLNVFLTPDAKPFYGGTYFPQDHWLNLLGQISNAYLNHREDILKSAESFTESLNQSDVF”, for which the protein production result is listed as “not failed”.

On to “MKTDWSHYLSVEMESTISNELSILCGAEVAFLGYSCSGKPYTFGSPSFQAVAERFLNREASSSLQRSVMNAHQQAKIQELCKVYNRMVEEAKTEEAKVKKAAALAETMPVDEDAWWKVDPKEVEDHEEAKKIMEKCEGLYEKLCNEAAARIQRGDAENNNK”, for which the protein production result is on record as “failed”.

Regarding “MKTFEVMIQTDSKGYLDAKFGGNAPKAFLNSNGLPTYSPKISWQKVEGAQSYALELIDHDAQKVCGMPFVHWVVGNIAHNVLEENASMMDKRIVQGVNSLTQGFIRSPLNESEKQRSNLNNSVYIGPMPPNGDHHYLIQVYALDIPKLALKAPFFLGDLHDKMRNHIIAIGRKEFLYKQFVRK”, the protein production entry is given as “not failed”.

As for “MKTGDKQFAVIGLGRFGLAVCKELQDSGSQVLAVDINEDRVKEAAGFVSQAIVANCTHEETVAELKLDDYDMVMIAIGADVNASILATLIAKEAGVKSVWVKANDRFQARVLQKIGADHIIMPERDMGIRVARKMLDKRVLEFHPLGSGLAMTEFVVGSRLMGKTLSDLALCKVEGVQVLGFKRGPEIIKAPDMSTTLEIGDLIIVVGPQDKLANKLKSLLEHHHHHH”, the protein production entry is reported as “failed”.

With “MKTGKELKPGTVIRLENDPWLVQKAEFTKSGRNSAIMKTKLKNLLTGYKTEIVYSADDKLDDVILDRKEATLSFISGDTYTFMDTTDYTMYELNAEDIESVLPFVEEGMTDVCEAVFFDERLVSVELPTTIVRQVDYTEGSARGDTSGKVMKPAKLKNGTELSVADFIEIGDMIEIDTREGGSYKGRAKLEHHHHHH”, the protein production entry is “failed”.

Consider “MKTHFVKLLTQPESAWVQIRSEEQRKPWQYLPHLLLWALVPALCLLIGVTQVGWSLVDAERVRLSLASAMQLALLLYLTALLGTVLMGGFIRWMSRPFEARPTLNQCVGFAAYTATPYFIAGISGLYPSRWLAVAALLVASAYASYLLLVGLPKFMYLNQERGRLYAASVWGVGLLVLVTILVSMILFWFNVLAPQYLRPLAAL”, for which the protein production result is “failed”.

As for “MKTINVFHYDAFTNKPNMGNPAGIVLDADGLTEEEMQRIAEKVGFNETSFVLSSEVADIRMRYFTPGYEMDLCGHGTVGTIYALRERGLLEEKASLTIETKAGILPIQIGVNENGETFIKMRQTAPQFKDFAGSKEELAHSIGLEVNDLDVSLPIVYGSTGNWTVIVPVKNLDVCERMKPNNEVFPSVLKEIPNASIHPICLETYDEKVHMHGRHFSSAYAGTIEDPVTGTASGVMGAYYATYVEKDFDHEMELIVEQGQEIHKDGRVTVYVTKDVESEKLQIDIAGTAVYVKEFEVLI”, the protein production entry is “failed”.

As to “MKTKNKILPEQEEEKTFQYRTYGKGELALLYLPNILQQSAVDRFNEWIEAAPGLKERLLATGMNPRARYYTPAQVRLIIEVLQEP”, the protein production result was “failed”.

On to “MKTLFWRTLVVIFIILGVIGAILPGMPTTVFLILAAWAASKGWPEMDEWLLNHPKYGPTLRDWRAHGTVPRKAKWIASIMMLISAIMMLFTNAPFWVKVFTDTTMLIVAIWLWLRPEPVKLPLESPTLHQNTEDEHV”, for which the protein production result was “failed”.

For the sequence “MKTLLIIAHAPSENTKLMAEAVLKGAQHPDIEQVQTRWVRPLEATPEDVLSCDGIIMGTTENLGYMSGALKDFFDRCYYPCLEVKQGLPCALYVRAGNDGTGTCRAVETICTGLRWNWIQPPLVCRGDWQTLFIEQCEELGMTMAAGLDVGIY”, the protein production result is “failed”.

Take “MKTNSEELTVFVQVVESGSFSRAAEQLEMANSAVSRIVKRLEEKLGVNLLNRTTRQLNLTEEGAQYFRRAQRILQEMAAAETEMLAVHEVPQGVLRVDSAMPMVLHLLAPLAAKFNERYPHIRLSLVSSEGYINLIERKVDIALRAGELDDSGLRARHLFDSHFRVVASPEYLAKHGTPQSAEDLANHQCLGFTEPGSLNTWAVLDAQGNPYKISPHFTASSGEILRSLCLSSCGIACLSDFLVDNDITEGKLIPLFAEQTSNKTHPFNAVYYSDKAVNLRLRVFLDFLVKELGKNMNRTNTK”: the protein production entry is “not failed”.

For “MKTRKIPLRKSVVSNEVIDKRDLLRIVKNKEGQVFIDPTGKANGRGAYIKLDNAEALEAKKKKVFNRSFSMEVEESFYDELIAYVDHKVKRRELGLE”, the protein production entry was “not failed”.

For “MKTSIIILTCNNLRYSRRCIESIKKYTEKEAYEIIVVDNNSNDGTRNWLSKQKAIKKIYNNVNVGFPRGCNMGIKVACGSEVLLLNNDVVVTHNWLNNLRNCLYSSYEIGAVGPISNNCSNGQKINVRYDSIEDMHRFSKKYNISNKKKWTEVKRLIGFCFLIKRNVIRKVGLFDERFTPGNFEDDDYCIRMRKIGFRLMLCKDTFVHHYGSVSFKNTQYLKLLEVNKSKLEKKWGKSYDKLVLEHHHHHH”, the protein production entry is “failed”.

For “MKTSRECFSSAGGSPMIRATSARSPPVPQSALPIGSLLSAPRPAFTETEAQGLARTHFGLDGTALPLTSERDQNFRLATPRGAFVLKIANAAEPRGVTECQTLALLHLEAVAPGLPVPRVIRTREGAPWTELAGGNLLRLLTWVEGEPLWRARRGAAQRRAVGLCLGGIAAALADFSHPSADHELLWDIRHAARLRALLPAIPDARTAVLAERVLDRFETAVAPRLADLPWQVVHNDMNPHNIMVDPANADRVAGVIDFGDLVRTARVCDLAVAGSYQVDPGDPAGTLADLVAGYHAANPLRPEEVELLPDLVAARMVTTIAIASARAAQQPDNAPYILRNLPASAAGLEALTALAPGAAAAALLRATEAA”, the protein production result is “failed”.

With “MKTTFLSLCFLLFFPLTGYSWQTAVTHISFHDLQRHRQLDSIIYYPTADQGETQLLSDTAVFRGISVLPNAPLAEGKFPLVVLSHGSGGNNTSLAWLADKLVQQGMVVVAANHPGSTTGDSIPAQSAQLWLQTEDISFIISTLLSDPRWKSALDEQAIGVIGHSKGGYSAIATLGATLSRPHFIASCQQQPEQPNCQFYTHAGVTLDQLSAEKFEGNYADKRLRFAIALDPGMVPFYQKSSLLHLSAPLLLINADYFISPNESLNLGGATWVKQLNQPGITAVTLTKSGHFDFLPLCKPAAGAILAEEGEAFICATPAVEREKLHQQTVQQILTYLQ”, the protein production entry was “failed”.

On to “MKTTKIVIASLVSLTMVSNPLLTFAATNDVIDNTTEITTDKETSSTQPTIKNTLKAGQTQSFNDWFPDDNFASEVAAAFEMQATDTISEEQLATLTSLDCHNSSITDMTGIEKLTGLTKLICTSNNITTLDLSQNTNLTYLACDSNKLTNLDVTPLTKLTYLNCDTNKLTKLDVSQNPLLTYLNCARNTLTEIDVSHNTQLTELDCHLNKKITKLDVTPQTQLTTLDCSFNKITELDVSQNKLLNRLNCDTNNITKLDLNQNIQLTFLDCSSNKLTEIDVTPLTQLTYFDCSVNPLTELDVSTLSKLTTLHCIQTDLLEIDLTHNTQLIYFQAEGCRKIKELDVTHNTQLYLLDCQAAGITELDLSQNPKLVYLYLNNTELTELDVSHNTKLKSLSCVNAHIQDFSSVGKIPALNNNFEAEGQTITMPKETLTNNSLTIAVSPDLLDQFGNPMNIEPGDGGVYDQATNTITWENLSTDNPAVTYTFTSENGAIVGTVTTPFEAPQPIKGEDVTVHYLDDKGEKLADDEVLSGNLDDPYTSSAKDIPDYTLTTTPDNATGTFTTTSQSVTYVYTKNIVAAEPVTVNYVDDTGKTLSPSEILNGNVGDTYNATAKQIDGYTLSAEPTNATGQFTSSAQTVNYIYTKNPAPEKGVVEIHYVDEDNKQLNSTTEISGTIGDNYTTEPKTIEGYTLTTTPGNATGTFTTGSQTVTYVYTKNIEAAEPITVNYVDANGKTLAPSETLNGNVGDTYKATAKQIDGYTLSAEPTNATGQFTSSAQTVNYIYTKNTNTDQPLPTKKPTNTTPTKPSNLKTTEVKKASDTLPKTGDSAPWKSALLGVFLSSTALVIWKKKK”, for which the protein production result was “failed”.

Take “MKTTQRTAGWYHVMAAVTVMIWGTTFVATKVLIKYGLSPVDILFYRFLLAYICIWFFSPRVLLAKSWQDELRFVGLGLCGGSLYFVAENTALGMTLASNVSLIICTTPILTALLAPFFYKGDKLKARLIGGSLMALIGVGLVVFNGSFILQLSPAGDILTLIAALMWAFYCLLLRRMNTHYPTLFITRKVFFYGLVTLLPLFLVYPLQTDIHILFRPVVALNLLFLGVIASMLCYIMWNTAVKQLGVVCATSYIYVVPLITLLTSAIVIDETITIVALLGSALILSGVYIAERGVNLKK”: the protein production entry is recorded as “failed”.

For the sequence “MKTVKDAEIFCQYIAHEYLGKRNYKLLEDIIDKRITIIGTGAHEVSRNIQELMTALNKEAELWDGTFIIEDEWYQGTELADNLFVVIGQIEGRQNSNDQLVYSFSSRVTFIIEYHDMQWKIIHVHQSVPDYSQGDDEFFPQRIVEESNAQLKKEIAEKTKELEMSNQQVIYNLRHDYLTGILNRPSLEKEVTEAMSNHQYGVILVLDIDYFKEVNDNNGHPYGDEVLIKLANTMQESFKSGICGRIGGDEFIIYLALDDANYDAIEKTIKEFKQNWQKNITTIDRSSTITLSIGGAYYPKHGKNYQELWSNADKALYLSKNNGRNRISIYQL”, the protein production entry is given as “failed”.

Take “MKVALGGTFEPLHEGHKKLIDVAIKLGGRDITIGVTSDRMARARIRSVLPFAIRAENVKRYVMRKYGFEPEIVKITNPYGKTLDVDFEYLVVSPETYEMALKINQKREELGKRKITIVKVDWMMAEDGKPISSTRIKRGEIDRYGGII”: the protein production result is “not failed”.

On to “MKVASGSTATAAAGPSCALKAGKTASGAGEVVRCLSEQSVAISRCAGGAGARLPALLDEQQVNVLLYDMNGCYSRLKELVPTLPQNRKVSKVEILQHVIDYIRDLQLELNSESEVGTPGGRGLPVRAPLSTLNGEISALTAEAACVPADDRILCR”, for which the protein production result is “failed”.

Consider “MKVCYYYDGDVGNYYYGQGHPMKPHRIRMTHNLLLNYGLYRKMEIYRPHKANAEEMTKYHSDDYIKFLRSIRPDNMSEYSKQMQRFNVGEDCPVFDGLFEFCQLSTGGSVASAVKLNKQQTDIAVNWAGGLHHAKKSEASGFCYVNDIVLAILELLKYHQRVLYIDIDIHHGDGVEEAFYTTDRVMTVSFHKYGEYFPGTGDLRDIGAGKGKYYAVNYPLRDGIDDESYEAIFKPVMSKVMEMFQPSAVVLQCGSDSLSGDRLGCFNLTIKGHAKCVEFVKSFNLPMLMLGGGGYTIRNVARCWTYETAVALDTEIPNELPYNDYFEYFGPDFKLHISPSNMTNQNTNEYLEKIKQRLFENLRMLPHLEHHHHHH”, for which the protein production entry is listed as “failed”.
